Source: publication PMC3690481 (2013)
Read-outs that look alike come from different tables or passages of the source.

B1: OTULIN C129A TQK100-102AAA (enzyme)
chain: MSRGTMPQPEAWPGASCAETPAREAAATARDGGKAAASGQPRPEMQCPAEHEEDMYRAADEIEKEKELLIHERGASEPRLSVAPEMDIMDYCKKEWRGNAAAATCMKMGYEEVSQKFTSIRRVRGDNYAALRATLFQAMSQAVGLPPWLQDPELMLLPEKLISKYNWIKQWKLGLKFDGKNEDLVDKIKESLTLLRKKWAGLAEMRTAEARQIACDELFTNEAEEYSLYEAVKFLMLNRAIELYNDKEKGKEVPFFSVLLFARDTSNDPGQLLRNHLNQVGHTGGLEQVEMFLLAYAVRHTIQVYRLSKYNTEEFITVYPTDPPKDWPVVTLIAEDDRHYNIPVRVCEETSL
B2: NEMO UBAN domain (domain or fragment)
chain: GMQLEDLKQQLQQAEEALVAKQEVIDKLKEEAEQHKIVMETVPVLKAQADIYKADFQAERQAREKLAEKKELLQEQLEQLQREYSKLKAS

Key:
FlAsH-tagged Met1-diUb [1] = target: T1, FlAsH-tagged Met1-diUb (UniProt P0CG48 1-76; P0CG48 1-71, Lumio Green (FlAsH) on the C-terminal WCCPGCC motif); assay: FP
FlAsH-tagged Met1-diUb [2] = target: T1, FlAsH-tagged Met1-diUb; assay: FP; remark: listed apart in the source

Row | Binder | Kd (FlAsH-tagged Met1-diUb [1]) | Kd (FlAsH-tagged Met1-diUb [2])
1 | B1 | 36.1 µM | –
2 | B2 | – | 3.7 µM
